In this assay the target is Orai1-GFP (UniProt Q96D31). The experiment in a line: FRET or BRET. For orientation: BRET reads energy transfer from a luciferase to a nearby fluorophore.
Chain of UniProt Q96D31 (Q96D31 whole entry): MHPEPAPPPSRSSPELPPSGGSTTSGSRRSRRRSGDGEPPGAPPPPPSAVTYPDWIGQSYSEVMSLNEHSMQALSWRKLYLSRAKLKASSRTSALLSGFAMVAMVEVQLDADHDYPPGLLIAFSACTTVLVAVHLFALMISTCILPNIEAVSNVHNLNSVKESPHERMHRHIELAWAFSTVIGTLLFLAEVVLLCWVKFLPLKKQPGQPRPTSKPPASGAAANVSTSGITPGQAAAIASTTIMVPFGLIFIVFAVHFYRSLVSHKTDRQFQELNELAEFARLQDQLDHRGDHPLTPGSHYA

Substance STIM1A-mCherry (natural protein) had an FRET efficiency (E-FRET) of 0.26.

Values taken from article PMC8892257.
